T1: Mos-1 transposase TY (Drosophila mauritiana, UniProt Q7JQ07 SEQ:1-345, T216A,Y237C)
T1 sequence: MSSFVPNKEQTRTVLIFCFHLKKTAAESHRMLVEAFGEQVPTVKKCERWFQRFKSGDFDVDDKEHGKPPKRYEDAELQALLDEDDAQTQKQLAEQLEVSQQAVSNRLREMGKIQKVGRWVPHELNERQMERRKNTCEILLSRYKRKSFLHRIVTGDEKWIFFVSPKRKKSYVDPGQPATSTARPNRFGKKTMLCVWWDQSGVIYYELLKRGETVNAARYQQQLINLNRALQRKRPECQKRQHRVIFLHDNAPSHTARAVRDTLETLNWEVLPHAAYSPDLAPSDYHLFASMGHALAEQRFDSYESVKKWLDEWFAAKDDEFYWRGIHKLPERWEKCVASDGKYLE

T2: Mos-1 transposase FQETY (Drosophila mauritiana, UniProt Q7JQ07 SEQ:1-345, F53Y,Q91R,E137K,T216A,Y237C)
T2 sequence: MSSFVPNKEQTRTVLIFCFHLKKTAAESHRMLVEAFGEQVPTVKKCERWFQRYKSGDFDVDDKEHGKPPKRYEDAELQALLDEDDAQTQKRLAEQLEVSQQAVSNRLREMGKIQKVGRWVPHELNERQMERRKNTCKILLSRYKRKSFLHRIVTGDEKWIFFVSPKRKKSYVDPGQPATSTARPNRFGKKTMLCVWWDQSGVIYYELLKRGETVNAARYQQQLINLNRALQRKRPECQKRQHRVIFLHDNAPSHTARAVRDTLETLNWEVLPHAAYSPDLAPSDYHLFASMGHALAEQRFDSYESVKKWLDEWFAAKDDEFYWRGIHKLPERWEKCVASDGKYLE

T3: Mos-1 transposase ET (Drosophila mauritiana, UniProt Q7JQ07 SEQ:1-345, E137K,T216A)
T3 sequence: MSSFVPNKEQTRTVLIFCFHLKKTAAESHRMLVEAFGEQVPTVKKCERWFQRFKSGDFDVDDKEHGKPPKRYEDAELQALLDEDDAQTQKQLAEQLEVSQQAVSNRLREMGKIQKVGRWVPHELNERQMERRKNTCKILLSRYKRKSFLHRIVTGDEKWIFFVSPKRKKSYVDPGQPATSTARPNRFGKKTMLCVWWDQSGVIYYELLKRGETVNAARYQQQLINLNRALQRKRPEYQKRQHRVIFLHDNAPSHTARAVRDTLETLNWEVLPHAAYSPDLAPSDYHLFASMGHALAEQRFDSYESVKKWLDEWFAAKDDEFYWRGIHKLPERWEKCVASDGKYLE

T4: Mos-1 transposase FT (Drosophila mauritiana, UniProt Q7JQ07 SEQ:1-345, F53Y,T216A)
T4 sequence: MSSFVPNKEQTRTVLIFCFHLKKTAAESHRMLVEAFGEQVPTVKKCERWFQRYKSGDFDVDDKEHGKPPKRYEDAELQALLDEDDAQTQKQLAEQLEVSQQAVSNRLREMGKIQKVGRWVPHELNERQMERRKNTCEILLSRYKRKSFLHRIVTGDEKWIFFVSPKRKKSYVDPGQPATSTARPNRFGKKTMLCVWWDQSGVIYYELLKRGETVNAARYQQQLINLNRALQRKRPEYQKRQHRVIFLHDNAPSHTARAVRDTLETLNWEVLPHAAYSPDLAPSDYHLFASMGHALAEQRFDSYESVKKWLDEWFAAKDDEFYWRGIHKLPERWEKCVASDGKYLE

T5: Mos-1 transposase QY (Drosophila mauritiana, UniProt Q7JQ07 SEQ:1-345, Q91R,Y237C)
T5 sequence: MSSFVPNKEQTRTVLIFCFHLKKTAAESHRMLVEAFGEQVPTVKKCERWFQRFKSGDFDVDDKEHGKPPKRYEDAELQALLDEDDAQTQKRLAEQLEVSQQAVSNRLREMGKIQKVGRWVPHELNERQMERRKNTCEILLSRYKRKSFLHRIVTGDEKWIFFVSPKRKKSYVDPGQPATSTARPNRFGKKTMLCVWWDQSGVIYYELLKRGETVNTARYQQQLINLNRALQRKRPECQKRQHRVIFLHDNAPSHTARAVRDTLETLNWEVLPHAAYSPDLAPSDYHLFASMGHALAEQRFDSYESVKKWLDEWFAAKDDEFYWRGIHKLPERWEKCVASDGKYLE


Legend:
Conditions in all cases: chain copies: 2
[1] = molecular target: T1, Mos-1 transposase TY; assay: cell_activity; 3T46 transposition in E. coli T5 vs 3T3/WT
Method: (§1) Escherichia coli JM109 bacteria were co-transformed with the pBC 3T3 plasmid (comprising a transposition reporter 2 ITR 3′ mariner-like element and the chloramphenicol resistance gene) and with the inducible vector encoding for the transposase (pKK-Tnp or pMal-Tnp) comprising the ampicillin resistance gene. The bacteria selection was performed on ampicillin (100 μg/ml) and chloramphenicol in order to verify the presence of the two plasmids.
(§2) The JM109 bacteria containing both the pBC 3T3 plasmid and the pKK-Tnp (or pMalC2X-Tnp) plasmid were placed in culture for 1 hr at 37° C. in 250 μl of LB. This inoculum was then poured into 5 ml of LB supplemented with 1 mM IPTG. The culture was titrated on LB plates (100 μl of a 1/1000 dilution) and on LB-Tet plates (12.5 μg/ml) (250 μl of the non-diluted culture). The culture induced by IPTG was then cultured for 5 hours at 32° C. (optimal temperature of transposase) under stirring (250 rpm). The bacterial suspension was then titrated on LB plates (100 μl of a 1/250,000 dilution) and on LB-tet plates (100 μl of the undiluted bacterial suspension). The plates were placed at 37° C. overnight. The following day, the colonies were counted on LB and LB-Tet plates, and the transposition frequency (equal to the number of tetracycline bacteria over the number of bacterial per 1 ml of undiluted bacterial suspension) was calculated.
(§3) In order to evaluate the transposition efficiency of systems associating a hyperactive transposase and a pseudo-transposon that is also hyperactive, various combinations were tested in the transposition test in bacteria described in part I, paragraph I-B above.

[2] = molecular target: T2, Mos-1 transposase FQETY; assay: as above
Method: as §1, §2, §3

[3] = molecular target: T3, Mos-1 transposase ET; assay: cell_activity; 3T40 transposition in E. coli T5 vs 3T3/WT
Method: as §1, §2, §3

[4] = molecular target: T1, Mos-1 transposase TY; assay: as above
Method: as §1, §2, §3

[5] = molecular target: T4, Mos-1 transposase FT; assay: as above
Method: as §1, §2, §3

[6] = molecular target: T5, Mos-1 transposase QY; assay: as above
Method: as §1, §2, §3

Binder	activity [1] [fold]	activity [2] [fold]	activity [3] [fold]	activity [4] [fold]	activity [5] [fold]	activity [6] [fold]
ITR46 (dsDNA) DNA 1: TCAGGTGTACAAGTATGAGATGTCGTTT DNA 2: AAACGACATCTCATACTTGTACACCTGA	61.8	2.3				
ITR40 (dsDNA) DNA 1: TCAGGTGTACAAGTATGTAATGTCGTTA DNA 2: TAACGACATTACATACTTGTACACCTGA			8.9	36.2	2	1.3

— patent publication US20100291682, “SYSTEM FOR TRANSPOSING HYPERACTIVE RECOMBINANT DERIVATIVES OF MOS-1 TRANSPOSON” (published 2010)
